In the supplement of paper PMC7877785:
± gives the uncertainty stated by the source.

Test: self-splicing fitness, log relative to wild type (ln ratio); higher = more splicing; Tetrahymena group I intron in knt gene, E. coli kanamycin selection, DiMSum; sequences stand for … in CUCUCU…GGAGGGAAAAGUUAUCAGGCAUGCACCUGGUAGCUAGUCUUUAAACCAAUAGAUUGCAUCGGUUUAAAAGGCAAGACCGUCAAAUUGCGGGAAAGGGGUCAACAGCCGUUCAGUACCAAGUCUCAGGGGAAACUUUGAGAUGGCCUUGCAAAGGGUAUGGUAAUAAGCUGACGGACAUGGUCCUAACCACGCAGCCAAGUCCUAAGUCAACAGAUCUUCUGUUGAUAUGGAUGCAGUUCACAGACUAAAUGUCGGUCGGGGAAGAUGUAUUCUUCUCAUAAGAUAUAGUCGGACCUCUCCUUAAUGGGAGCUAGCGGAUGAAGUGAUGCAACACUGGAGCCGCUGGGAACUAAUUUGUAUGCGAAAGUAUAUUGAUUAGUUUUGGAGUACUCGUGGUCG
How it was run: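 The eight P1ex-region nucleotides of an intron in the knt kanamycin-resistance gene on pET-22b(+) were all randomised and the library put into E. coli BL21(DE3). Six replicate transformations were grown overnight at 37°C or 30°C on LB agar with or without 25 μg/mL kanamycin, together with 100 μg/mL carbenicillin, 50 μM IPTG and 0.2% rhamnose. Colonies were pooled and amplicon-sequenced on an Illumina HiSeq 2500. Fitness from DiMSum is the error-weighted combination of wild-type-normalised replicate fold changes, kanamycin over none.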

Row | Sequence | self-splicing fitness (ln) (37 °C) | self-splicing fitness (ln) (30 °C)
1 | CGGAAGCAAUAUUACGCGCC | -0.393 ± 0.27 | 
2 | CGGAAGCAAUAUUACGCGGU | -2.73 ± 0.22 | -3.98 ± 0.29
3 | CGGAAGCAAUAUUACGCGUC | -3.1 ± 0.37 | -2.62 ± 0.14
4 | CGGAAGCAAUAUUACGCGUG | -0.867 ± 0.17 | -1.54 ± 0.16
5 | CGGAAGCAAUAUUACGCGUU | -2.9 ± 0.33 | -3.9 ± 0.34
6 | CGGAAGCAAUAUUACGCUGA | -1.21 ± 0.26 | 
7 | CGGAAGCAAUAUUACGGCAG | 0.445 ± 0.13 | -0.0767 ± 0.11
8 | CGGAAGCAAUAUUACGGCGG | 0.177 ± 0.13 | -0.184 ± 0.1
9 | CGGAAGCAAUAUUACGUAUG | -0.904 ± 0.083 | -1.49 ± 0.069
10 | CGGAAGCAAUAUUACGUGAC | -2.12 ± 0.35 | -1.6 ± 0.16
11 | CGGAAGCAAUAUUACGUGCA | -0.628 ± 0.13 | -3.23 ± 0.23
12 | CGGAAGCAAUAUUACGUGCG | -1.05 ± 0.14 | -1.64 ± 0.095
13 | CGGAAGCAAUAUUACGUUCC |  | -2.32 ± 0.48
14 | CGGAAGCAAUAUUACGUUCU | -0.77 ± 0.14 | -1.91 ± 0.14
15 | CGGAAGCAAUAUUACGUUGU | -2.88 ± 0.24 | -3.82 ± 0.22
16 | CGGAAGCAAUAUUACGUUUA | -2.06 ± 0.17 | -3.07 ± 0.24
17 | CGGCAGCAAUAUUACGAAAA | -2.21 ± 0.37 | -2.23 ± 0.26
18 | CGGCAGCAAUAUUACGAACG | 0.693 ± 0.15 | -1.11 ± 0.11
19 | CGGCAGCAAUAUUACGACUC | -0.759 ± 0.1 | -0.739 ± 0.097
20 | CGGCAGCAAUAUUACGAUAC | -2.89 ± 0.31 | -3.21 ± 0.26
21 | CGGCAGCAAUAUUACGAUAG | -0.126 ± 0.086 | -0.0988 ± 0.079
22 | CGGCAGCAAUAUUACGAUGA | -1.21 ± 0.12 | -1.21 ± 0.095
23 | CGGCAGCAAUAUUACGAUUC | -2.3 ± 0.19 | -2.62 ± 0.17
24 | CGGCAGCAAUAUUACGCAAC | -2.1 ± 0.26 | 
25 | CGGCAGCAAUAUUACGCAAU | -1.77 ± 0.19 | -3.47 ± 0.2
26 | CGGCAGCAAUAUUACGCCAA | -0.921 ± 0.13 | -1.61 ± 0.15

Row | Sequence | self-splicing fitness (ln) (37 °C) | self-splicing fitness (ln) (30 °C)
27 | CGGCAGCAAUAUUACGCCCG |  | -2.32 ± 0.47
28 | CGGCAGCAAUAUUACGCCUG | -1.89 ± 0.23 | -0.88 ± 0.24
29 | CGGCAGCAAUAUUACGCGAG | -2.37 ± 0.14 | -2.86 ± 0.14
30 | CGGCAGCAAUAUUACGCGGA | -2.7 ± 0.3 | 
31 | CGGCAGCAAUAUUACGCGUU | -2.75 ± 0.18 | -4.11 ± 0.2
32 | CGGCAGCAAUAUUACGCUAA | -2.03 ± 0.15 | -1.59 ± 0.1
33 | CGGCAGCAAUAUUACGGAGG | -0.0971 ± 0.11 | -1.2 ± 0.086
34 | CGGCAGCAAUAUUACGGAGU | -2.33 ± 0.2 | -3.46 ± 0.27
35 | CGGCAGCAAUAUUACGGAUA | -2.39 ± 0.18 | -3.38 ± 0.22
36 | CGGCAGCAAUAUUACGGCUA | 0.407 ± 0.096 | -0.121 ± 0.07
37 | CGGCAGCAAUAUUACGGCUG | -2.23 ± 0.27 | -3.69 ± 0.47
38 | CGGCAGCAAUAUUACGGGCA | -0.644 ± 0.13 | -2.31 ± 0.26
39 | CGGCAGCAAUAUUACGUGAG | -0.055 ± 0.069 | -0.694 ± 0.041
40 | CGGCAGCAAUAUUACGUGGA | -1.72 ± 0.27 | -2.73 ± 0.26
41 | CGGCAGCAAUAUUACGUUUG | -0.243 ± 0.079 | -1.58 ± 0.069
42 | CGGGAGCAAUAUUACGAGAG | -3.18 ± 0.32 | -3.34 ± 0.26
43 | CGGGAGCAAUAUUACGAGUC | -1.07 ± 0.26 | 
44 | CGGGAGCAAUAUUACGCGGG | -2.83 ± 0.3 | -4.1 ± 0.37
45 | CGGGAGCAAUAUUACGGAAA |  | -3.53 ± 0.29
46 | CGGGAGCAAUAUUACGGGAU |  | -3.37 ± 0.34
47 | CGGGAGCAAUAUUACGGUCC | -2.32 ± 0.24 | 
48 | CGGGAGCAAUAUUACGGUUC | -1.95 ± 0.35 | -3.39 ± 0.25
49 | CGGGAGCAAUAUUACGUAAU | -1.95 ± 0.28 | 
50 | CGGGAGCAAUAUUACGUACA |  | -3.72 ± 0.35
51 | CGGGAGCAAUAUUACGUAUU | -2.31 ± 0.37 | -4.48 ± 0.41
52 | CGGGAGCAAUAUUACGUGAG | -0.865 ± 0.11 | -1.03 ± 0.11
